Positions count from the first letter of the chain named.
B1: anti-variant (human) Fc-region antibody M1.3.17 (antibody, V domains shown)
VH: EVKLLESGGGLVQPGGSLKLSCAASGIDFRRYWMNWVRQAPGKGLEWIGEIDPDSSTINYTPSLKDKFIISRDNAKNTMYLQMRKVRSEDTALYYCARPYDYGAWFAYWGQGTLVTVSA
VL: QAVVTQESALTTSPGETVTLTCRSTTGAVTTSNYANWVQEKPDHLFTGLIGGTNKRAPGVPARFSGSLIGDKAALTITGAQTEDEAIYFCALWYSDHWVFGGGTKLTVL
B2: anti-variant (human) Fc-region antibody M1.7.24 (antibody, V domains shown)
VH: B1 VH with I27F, R30S, D52T, M79L, R84I, A97V, Y108S
VL: B1 VL with T25S, D96N
B3: anti-AAA variant Fc-region antibody M1.6.22 (antibody, V domains shown)
VH: EVQLVESGGDLVKPGGSLKLSCAASGFTFSSYGMSWVRQTPDKRLEWVATISSGGSYIYYPDSVKGRFTISRDNAKNTLYLQMSSLKSEDTAMYYCARLGMITTGYAMDYWGQGTSVTVSS
VL: DVLMTQTPLSLPVSLGDQASISCRSSQTIVHSTGHTYLEWFLQKPGQSPKLLIYKVSNRFSGVPDRFSGSGSGTDFTLKISRVEAEDLGVYYCFQGSHVPYTFGGGTKLEIK

Target: anti-VEGF/ANG2 antibody (IgG1 subclass with mutations P329G/L234A/L235A) (human) [IgG part: P01857]
Experiment: sandwich ELISA assay C; capture on SA plate; tracer FcγRI-Dig; analyte 100 ng/mL

| signal [OD405 nm] | Binder |
| --- | --- |
| 1.22 | B1 |
| 0.082 | B2 |
| 0.076 | B3 |

Target: anti-VEGF/ANG2 antibody (IgG1 subclass with mutations P329G/L234A/L235A/I253A/H310A/H435A) (human) [IgG part: P01857]
Experiment: as above

| signal [OD405 nm] | Binder |
| --- | --- |
| 1.19 | B1 |
| 0.05 | B2 |
| 0.079 | B3 |

Target: anti-IGF-1R antibody (IgG1 subclass with mutations I253A/H310A/H435A) (human) [IgG part: P01857]
Experiment: as above

| signal [OD405 nm] | Binder |
| --- | --- |
| 1.2 | B1 |
| 0.11 | B2 |
| 2.1 | B3 |

Target: anti-P-Selectin antibody (IgG4 subclass with mutations S228P/L235E) (human) [IgG part: P01861]
Experiment: as above

| signal [OD405 nm] | Binder |
| --- | --- |
| 1.17 | B1 |
| 0.08 | B2 |
| 0.069 | B3 |

Target: anti-VEGF/ANG2 antibody (IgG1 subclass with mutations P329G/L234A/L235A) [IgG part: P01857]
Experiment: sandwich ELISA assay A; capture M1.7.10-Bi; antibody 2 at 25 ng/mL

| signal [OD405 nm] | Binder |
| --- | --- |
| 2.93 | B1 |
| 2.61 | B2 |
| 0.06 | B3 |

Target: anti-VEGF/ANG2 antibody (IgG1 subclass with mutations P329G/L234A/L235A) (human) [IgG part: P01857]
Experiment: sandwich ELISA assay B; capture on SA plate; tracer M1.7.10-Dig; analyte 2 ng/mL

| signal [OD405 nm] | Binder |
| --- | --- |
| 0.125 | B1 |
| 1.73 | B2 |
| 0.041 | B3 |

Target: anti-VEGF/ANG2 antibody (IgG1 subclass with mutations P329G/L234A/L235A/I253A/H310A/H435A) (human) [IgG part: P01857]
Experiment: as above

| signal [OD405 nm] | Binder |
| --- | --- |
| 0.036 | B1 |
| 0.049 | B2 |
| 0.041 | B3 |

Target: anti-IGF-1R antibody (IgG1 subclass with mutations I253A/H310A/H435A) (human) [IgG part: P01857]
Experiment: as above

| signal [OD405 nm] | Binder |
| --- | --- |
| 0.047 | B1 |
| 0.047 | B2 |
| 1.48 | B3 |

Target: anti-P-Selectin antibody (IgG4 subclass with mutations S228P/L235E) (human) [IgG part: P01861]
Experiment: as above

| signal [OD405 nm] | Binder |
| --- | --- |
| 0.049 | B1 |
| 0.033 | B2 |
| 0.032 | B3 |

Target: anti-VEGF/ANG2 antibody (wild-type IgG1 subclass) [IgG part: P01857]
Experiment: sandwich ELISA assay A; capture M1.7.10-Bi; antibody 5 at 25 ng/mL

| signal [OD405 nm] | Binder |
| --- | --- |
| 0.037 | B1 |
| 0.039 | B2 |
| 0.053 | B3 |

Target: anti-IGF-1R antibody (IgG1 subclass with mutations I253A/H310A/H435A) [IgG part: P01857]
Experiment: sandwich ELISA assay A; capture M1.7.10-Bi; antibody 3 at 3 ng/mL

| signal [OD405 nm] | Binder |
| --- | --- |
| 0.036 | B1 |
| 0.045 | B2 |
| 0.414 | B3 |

Target: anti-IGF-1R antibody (IgG1 subclass with mutations I253A/H310A/H435A) [IgG part: P01857]
Experiment: sandwich ELISA assay A; capture M1.7.10-Bi; antibody 3 at 2 ng/mL

| signal [OD405 nm] | Binder |
| --- | --- |
| 0.042 | B1 |
| 0.048 | B2 |
| 0.199 | B3 |

Target: anti-P-Selectin antibody (IgG4 subclass with mutations S228P/L235E) [IgG part: P01861]
Experiment: sandwich ELISA assay A; capture M1.7.10-Bi; antibody 4 at 0 ng/mL (blank)

| signal [OD405 nm] | Binder |
| --- | --- |
| 0.036 | B1 |
| 0.045 | B2 |
| 0.043 | B3 |

Target: anti-VEGF/ANG2 antibody (wild-type IgG1 subclass) [IgG part: P01857]
Experiment: sandwich ELISA assay A; capture M1.7.10-Bi; antibody 5 at 6 ng/mL

| signal [OD405 nm] | Binder |
| --- | --- |
| 0.036 | B1 |
| 0.042 | B2 |
| 0.046 | B3 |

Target: anti-VEGF/ANG2 antibody (IgG1 subclass with mutations P329G/L234A/L235A/I253A/H310A/H435A) [IgG part: P01857]
Experiment: sandwich ELISA assay A; capture M1.7.10-Bi; antibody 1 at 2 ng/mL

| signal [OD405 nm] | Binder |
| --- | --- |
| 0.043 | B1 |
| 0.042 | B2 |
| 0.055 | B3 |

Target: anti-VEGF/ANG2 antibody (IgG1 subclass with mutations P329G/L234A/L235A/I253A/H310A/H435A) (human) [IgG part: P01857]
Experiment: sandwich ELISA assay C; capture on SA plate; tracer FcγRI-Dig; analyte 50 ng/mL

| signal [OD405 nm] | Binder |
| --- | --- |
| 1.17 | B1 |
| 0.084 | B2 |
| 0.077 | B3 |

Target: anti-IGF-1R antibody (IgG1 subclass with mutations I253A/H310A/H435A) (human) [IgG part: P01857]
Experiment: as above

| signal [OD405 nm] | Binder |
| --- | --- |
| 1.21 | B1 |
| 0.095 | B2 |
| 1.06 | B3 |

Target: anti-VEGF/ANG2 antibody (IgG1 subclass with mutations P329G/L234A/L235A) (human) [IgG part: P01857]
Experiment: sandwich ELISA assay B; capture on SA plate; tracer M1.7.10-Dig; analyte 100 ng/mL

| signal [OD405 nm] | Binder |
| --- | --- |
| 0.216 | B1 |
| 3.23 | B2 |
| 0.21 | B3 |

Target: anti-VEGF/ANG2 antibody (IgG1 subclass with mutations P329G/L234A/L235A/I253A/H310A/H435A) (human) [IgG part: P01857]
Experiment: as above

| signal [OD405 nm] | Binder |
| --- | --- |
| 0.035 | B1 |
| 0.057 | B2 |
| 0.052 | B3 |

Target: anti-IGF-1R antibody (IgG1 subclass with mutations I253A/H310A/H435A) (human) [IgG part: P01857]
Experiment: as above

| signal [OD405 nm] | Binder |
| --- | --- |
| 0.05 | B1 |
| 0.098 | B2 |
| 2.9 | B3 |

Target: anti-P-Selectin antibody (IgG4 subclass with mutations S228P/L235E) (human) [IgG part: P01861]
Experiment: as above

| signal [OD405 nm] | Binder |
| --- | --- |
| 0.048 | B1 |
| 0.05 | B2 |
| 0.051 | B3 |

Target: anti-VEGF/ANG2 antibody (wild-type IgG1 subclass) [IgG part: P01857]
Experiment: sandwich ELISA assay A; capture M1.7.10-Bi; antibody 5 at 3 ng/mL

| signal [OD405 nm] | Binder |
| --- | --- |
| 0.033 | B1 |
| 0.038 | B2 |
| 0.039 | B3 |

Target: anti-VEGF/ANG2 antibody (IgG1 subclass with mutations P329G/L234A/L235A) (human) [IgG part: P01857]
Experiment: sandwich ELISA assay B; capture on SA plate; tracer M1.7.10-Dig; analyte 6 ng/mL

| signal [OD405 nm] | Binder |
| --- | --- |
| 0.196 | B1 |
| 2.98 | B2 |
| 0.053 | B3 |

Target: anti-IGF-1R antibody (IgG1 subclass with mutations I253A/H310A/H435A) (human) [IgG part: P01857]
Experiment: as above

| signal [OD405 nm] | Binder |
| --- | --- |
| 0.045 | B1 |
| 0.039 | B2 |
| 2.73 | B3 |

Target: anti-IGF-1R antibody (IgG1 subclass with mutations I253A/H310A/H435A) [IgG part: P01857]
Experiment: sandwich ELISA assay A; capture M1.7.10-Bi; antibody 3 at 50 ng/mL

| signal [OD405 nm] | Binder |
| --- | --- |
| 0.044 | B1 |
| 0.048 | B2 |
| 2.74 | B3 |

Reference: patent publication US20180346602A1
